Laboratory results as given in US20190177366A1 (published 2019).
Ends that are not written are not given here.

Target: T1, proprotein convertase subtilisin/kexin type 9 (PCSK9) (human, UniProt Q8NBP7 31-152)
T1 construct: domain: prodomain; Recombinant; tag not written as a part; also called rec.PCSK9; His-PCSK9
Test: phage spot ELISA

T1 sequence (Q8NBP7 31-152 limits assumed, chain 1 of 2): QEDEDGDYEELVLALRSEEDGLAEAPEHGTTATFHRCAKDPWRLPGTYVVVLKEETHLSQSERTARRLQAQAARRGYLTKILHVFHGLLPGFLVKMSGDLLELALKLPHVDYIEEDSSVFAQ
T1 sequence (Q8NBP7 153-692 limits assumed, chain 2 of 2): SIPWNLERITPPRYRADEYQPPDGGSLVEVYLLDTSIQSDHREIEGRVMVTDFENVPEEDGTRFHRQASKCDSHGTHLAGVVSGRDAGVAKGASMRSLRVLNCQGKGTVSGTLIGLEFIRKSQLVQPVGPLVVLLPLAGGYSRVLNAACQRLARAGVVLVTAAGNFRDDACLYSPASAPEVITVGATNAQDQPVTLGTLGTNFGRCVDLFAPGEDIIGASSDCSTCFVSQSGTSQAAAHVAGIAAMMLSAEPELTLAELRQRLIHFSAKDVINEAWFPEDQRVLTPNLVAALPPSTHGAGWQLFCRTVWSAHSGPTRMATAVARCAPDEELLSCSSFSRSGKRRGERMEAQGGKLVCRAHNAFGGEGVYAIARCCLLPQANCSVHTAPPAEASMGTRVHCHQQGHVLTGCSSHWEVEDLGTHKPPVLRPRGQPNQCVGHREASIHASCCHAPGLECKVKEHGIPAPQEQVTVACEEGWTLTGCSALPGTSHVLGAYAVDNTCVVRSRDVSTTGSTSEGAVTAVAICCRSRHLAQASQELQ

Binder | binding result
TAFTSWEEYLDWVGSGKLWNLTRISS (phage clone) [SEQ ID NO 312] | binds
TAFTSWEEYLDWVGSGALWNMRRVESVAFR (phage clone) [SEQ ID NO 319] | binds
TAFTSWEEYLDWVGSGQELPNHRRLS (phage clone) [SEQ ID NO 346] | binds
TAFTSWEEYLDWVGSGRGGYELNIPR (phage clone) [SEQ ID NO 326] | binds
TAFTSWEEYLDWVGSGACLNHFVSGNMIRC (phage clone) [SEQ ID NO 327] | binds
TAFTSWEEYLDWVGSGTRYADRGVMVYSLS (phage clone) [SEQ ID NO 321] | binds
TAFTSWEEYLDWVGSGMVYVDRGVRVFT (phage clone) [SEQ ID NO 322] | binds
TAFTSWEEYLDWVGSGQTTYLRVSSS (phage clone) [SEQ ID NO 341] | binds
TAFTSWEEYLDWVGSGPLLWNLQKVH (phage clone) [SEQ ID NO 310] | binds
TAFTSWEEYLDWVGSGNELWNINRLRSS (phage clone) [SEQ ID NO 317] | binds
TAFTSWEEYLDWVGSGGPWNLNRV (phage clone) [SEQ ID NO 309] | binds
TAFTSWEEYLDWVGSGQCYPWCRL (phage clone) [SEQ ID NO 338] | binds
TAFTSWEEYLDWVGSGKNNYAYLINMPRAPGI (phage clone) [SEQ ID NO 325] | binds
TAFTSWEEYLDWVGSGSETGLGTYYG (phage clone) [SEQ ID NO 350] | binds
TAFTSWEEYLDWVGSGVPWNLARL (phage clone) [SEQ ID NO 314] | binds
TAFTSWEEYLDWVGSGVPWNLAKI (phage clone) [SEQ ID NO 315] | binds
TAFTSWEEYLDWVGSGCMEAWQCSLA (phage clone) [SEQ ID NO 337] | binds
TAFTSWEEYLDWVGSGRGEVYDKGGVIVHL (phage clone) [SEQ ID NO 343] | binds
TAFTSWEEYLDWVGSGPRTYLRGLVD (phage clone) [SEQ ID NO 340] | binds
TAFTSWEEYLDWVGSGVCSDHYIGGKEVRC (phage clone) [SEQ ID NO 348] | binds
TAFTSWEEYLDWVGSGNCWSSLRGICENLG (phage clone) [SEQ ID NO 307] | binds

Binder | binding result
TAFTSWEEYLDWVGSGNPTYWLTRIS (phage clone) [SEQ ID NO 331] | binds
TAFTSWEEYLDWVGSGNVRCYRDVPSCS (not fully specified (bridges); cysteine pairing not given here, phage clone) [SEQ ID NO 329] | binds
TAFTSWEEYLDWVGSGVVLWNHSRIL (phage clone) [SEQ ID NO 313] | binds
TAFTSWEEYLDWVGSGGEYLWNLKRLES (phage clone) [SEQ ID NO 320] | binds
TAFTSWEEYLDWVGSGGREMRSVIQM (phage clone) [SEQ ID NO 344] | binds
TAFTSWEEYLDWVGSGCCSYGYEKCCNG [SEQ ID NO 349] | binds
TAFTSWEEYLDWVGSGVLWNHSRI (phage clone) [SEQ ID NO 308] | binds
TAFTSWEEYLDWVGSGCWTYLRGGCSVT (not fully specified (bridges); cysteine pairing not given here, phage clone) [SEQ ID NO 339] | binds
TAFTSWEEYLDWVGSGMPWNLARIER (phage clone) [SEQ ID NO 318] | binds
TAFTSWEEYLDWVGSGCVKVGLSWIGDCNS (phage clone) [SEQ ID NO 334] | binds
TAFTSWEEYLDWVGSGSYRGAWSVFGGSTD (phage clone) [SEQ ID NO 336] | binds
TAFTSWEEYLDWVGSGSCSWNVERIRGCSV (phage clone) [SEQ ID NO 311] | binds
TAFTSWEEYLDWVGSGKLWNLGRV (phage clone) [SEQ ID NO 306] | binds
TAFTSWEEYLDWVGSGNMCYLRGKMDCNIV (phage clone) [SEQ ID NO 347] | binds
TAFTSWEEYLDWVGSGGCVKYRGSVSCQESKT (phage clone) [SEQ ID NO 323] | binds
TAFTSWEEYLDWVGSGEHQFYSYRGVDVYR (phage clone) [SEQ ID NO 324] | binds
TAFTSWEEYLDWVGSGCPFYDWRCSDFS (not fully specified (bridges); cysteine pairing not given here, phage clone) [SEQ ID NO 328] | binds
TAFTSWEEYLDWVGSGGHPLWNLSRI (phage clone) [SEQ ID NO 316] | binds
TAFTSWEEYLDWVGSGGDCGYHYMCSMT (not fully specified (bridges); cysteine pairing not given here, phage clone) [SEQ ID NO 345] | binds
TAFTSWEEYLDWVGSGEDVVCYGRVDYMPLCV (phage clone) [SEQ ID NO 330] | binds
TAFTSWEEYLDWVGSGPHSYWLDRVQ (phage clone) [SEQ ID NO 332] | binds
